Assay: yeast display, Sf9 membrane polyspecificity reagent, FACS + sequencing; frameworks hold sequencing errors
Procedure, shortened: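 After 36–48 hours of galactose induction, yeast (Saccharomyces cerevisiae BJ5465) displaying a synthetic nanobody library were stained at 4 °C for 1 hour with 10% biotinylated, detergent-solubilized Sf9 membrane reagent. Streptavidin microbeads enriched the stained cells before FACS sorting into low and high (top ~1%) gates on anti-HA and streptavidin fluorescence. Each clone's polyreactivity label reflects its gate of origin.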

Which “polyreactivity (PSR sort gate)” value does the source give for “QVQLVESGGGLVQAGGSLRLSCAASGSILGLYAMGWYRQAPGKERELVAAITYRGGRTDYADSVKGRFTISRDNAKNTVYLQMNSLKPEDTAVYYCAAGYLPRPRYSTSYLYYYWGQGTQVTVSS” here?
Its value is “high polyreactivity”.

For “QVQLVESGGGLVQAGGSLRLSCAASGSILGLYAMGWYRQAPGKERELVASITSSGSTYYADSVKGRFTISRDNAKNTVYLQMNSLKPEDTAVYYCAARYYYGRRYDYWGQGTQVTVSS”, which “polyreactivity (PSR sort gate)” value is on record?
Its value is “low polyreactivity”.

With “QVQLVESGGGLVQAGGSLRLSCAASGSILGVYTMGWDRQAPGKERELVAAITSSSSSTYADSVKGRFTISRDNAKNTVYLQMNSVIPEDTAVYYCATRGWSKQLYGGYTQYYYWGQGTQVTVSS” as the sequence, how does the “polyreactivity (PSR sort gate)” value read?
Its value is “high polyreactivity”.

For “QVQLVESGGGLVQAGGSLRLSCAASGSILGYNAMGWYRQAPGKEREFVAAITYSGGTTYYADSVKGRFTISRDNAKNTVYLQMNSLKPEDTAVYYCAADYSVYDEFDYWGQGTQVTVSS”, which “polyreactivity (PSR sort gate)” value is on record?
Its value is “high polyreactivity”.

With “QVQLVESGGGLVQAGGSLRLSCAASGSILGYYAMGWYRQAPGKERELVAAISSGGSTNYADSVKGRFTISRDNAKNTVYLQMNSLKPEDTAVYYCAAGVTWPYRYVWYDYWGQGTQVTVSS” as the sequence, how does the “polyreactivity (PSR sort gate)” value read?
The value was “low polyreactivity”.

With “QVQLVESGGGLVQAGGSLRLSCAASGSILGYYVMGWYRQAPGKERELVAAISWSSGSTYYADSVKGRFTISRDNAKNTVYLQLNSLKPEDTAVYYCNASNVYFWFVTLEFDSWGQGTQVTVSS” as the sequence, how does the “polyreactivity (PSR sort gate)” value read?
Its value is “low polyreactivity”.

With “QVQLVESGGGLVQAGGSLRLSCAASGSILIWNTMGWDRQAPGKDRELVAAISSGGSTYYADSVKGRFTISRDNAKNTVYLQMNSLKPEDTAVYYCNVDLPRVLTDDSWGQGTHVTVSS” as the sequence, how does the “polyreactivity (PSR sort gate)” value read?
The value was “low polyreactivity”.

For “QVQLVESGGGLVQAGGSLRLSCAASGSILKSYAMGWYRQAPGKERELVAAITYRDGSTYYADSVKGRFTISRDNAKNTVYLQMNSLKPEDTAVYYCAAEPSWWNVFYPGYNYWGQGTQVTVSA”, which “polyreactivity (PSR sort gate)” value is on record?
Its value is “high polyreactivity”.

For “QVQLVESGGGLVQAGGSLRLSCAASGSILKVYAMGWYRQAPGKERELVAGITRSGVRTNYADSVKGRFTISRDNAKNTVYLQMNSLKPEDTAVCYCAAVGYVYRTYWYTRQSTYEYWGQGTQVTVSS”, which “polyreactivity (PSR sort gate)” value is on record?
The value was “high polyreactivity”.

For “QVQLVESGGGLVQAGGSLRLSCAASGSILLYYTMGWYRQAPGKERELVASITSGGRTYYADSVKGRFTISRDNAKNTVYLQMNSLKPEDTAVYYCAADVWKLYDYWGQGTQVTVSS”, which “polyreactivity (PSR sort gate)” value is on record?
Its value is “low polyreactivity”.

With “QVQLVESGGGLVQAGGSLRLSCAASGSILNNYAMGWYRQAPGKERELVAAISSSGGTNYADSVKGRFTISRDNAKNTVYLPMNSLKPVDTAVYYCNADVLDGGYDYWGQGTQVTVSS” as the sequence, how does the “polyreactivity (PSR sort gate)” value read?
Its value is “low polyreactivity”.

Which “polyreactivity (PSR sort gate)” value does the source give for “QVQLVESGGGLVQAGGSLRLSCAASGSILPRYAMGWYRQAPGKERELVAAITSGGITSYADSVKGRFTISRDNAKNTVYLQMNSLKPEDTAVYYCAADWYVIYDYWGQGTQVTVSS” here?
Its value is “low polyreactivity”.

For “QVQLVESGGGLVQAGGSLRLSCAASGSILPTNAMGWYRPAPGKERELVASITYNGGRTSYADSVKGRFTISRDNAKNTVYLQMNSLKPEDTAVYYCAARVWYQGYKSMGYWGQGTQVTVSS”, which “polyreactivity (PSR sort gate)” value is on record?
Its value is “high polyreactivity”.

Which “polyreactivity (PSR sort gate)” value does the source give for “QVQLVESGGGLVQAGGSLRLSCAASGSILPYNAMGWYRQAPGKERELVASISRGGGTNYADSVKGRFTISRDNAKNTVYLQMNSLKPEDTAVYYCAARTLRVDYDSHWYSLVDYWGQGTQVTVSS” here?
Its value is “low polyreactivity”.

With “QVQLVESGGGLVQAGGSLRLSCAASGSILPYNAMGWYRQAPGKERELVCSSSRGGGTNYADSVKGRFTISRDNAKNTVYLQMNSLKPEDTAVYYCAARTLRVDYDSHWYSLVDYWGQGTQVTVSS” as the sequence, how does the “polyreactivity (PSR sort gate)” value read?
The value was “low polyreactivity”.

Which “polyreactivity (PSR sort gate)” value does the source give for “QVQLVESGGGLVQAGGSLRLSCAASGSILPYYAMGWYRQAPGKERELVAAISDSGGSTYYADSVKGRFTISRDNSKNTVYLQMNILKPEDTAVYYCNAVVRSTAHGYWGQGTQVTVSS” here?
Its value is “high polyreactivity”.

With “QVQLVESGGGLVQAGGSLRLSCAASGSILQINPMGWYRPAPAKERDLVAANDWGGGDTYYADSVKGRFTIARDNAKNTVYVQMISLKTEDTAVYYCAAEGVSWYVWDFYDIYGYWGHGTQVTVSS” as the sequence, how does the “polyreactivity (PSR sort gate)” value read?
The value was “high polyreactivity”.

For “QVQLVESGGGLVQAGGSLRLSCAASGSILQRNAMGWYRHARGTERELVAAISWSGDNTYYADSVKGRFTISRDNAKNTVYLQMISLKPEDTAVYYCATDDDIYFQEYDYWGQGTQVTVSA”, which “polyreactivity (PSR sort gate)” value is on record?
Its value is “low polyreactivity”.

For “QVQLVESGGGLVQAGGSLRLSCAASGSILRLYVMGWYIQAPGKDRELVADISDRGGSTYYADSVKGRFTISRDNAKNTVYLQMNSLKPEDTAVYYCAAEWGQRGGGGYYYWGQGTQVTVSS”, which “polyreactivity (PSR sort gate)” value is on record?
Its value is “low polyreactivity”.

With “QVQLVESGGGLVQAGGSLRLSCAASGSILRQYAMGWYRQAPGKERELVATITGDGSTNYADSVKGRFTISRDNAKNTVYLQMNSLKPEDTAVYYCNTALTYPYPNVEDLVYGFKLDYWGQGTQVTVSS” as the sequence, how does the “polyreactivity (PSR sort gate)” value read?
Its value is “low polyreactivity”.

Which “polyreactivity (PSR sort gate)” value does the source give for “QVQLVESGGGLVQAGGSLRLSCAASGSILRQYAMGWYRQAPGKERELVATITGDGSTNYADSVKGRFTISRDNAKNTVYLQMNSLKPEDTAVYYCNTYLTYPYPNVEVLVYGFKLDYWGQGTQVTVSS” here?
The value was “low polyreactivity”.

Which “polyreactivity (PSR sort gate)” value does the source give for “QVQLVESGGGLVQAGGSLRLSCAASGSILRSNAMGWYIQAPGKERELVATITNSGGSTYSDSVKGSFTISRDNAKNTVYVQMNSLKPEVTAVYYCAKAGAGESIAKYDYWGQGTQVTVSS” here?
The value was “low polyreactivity”.

Which “polyreactivity (PSR sort gate)” value does the source give for “QVQLVESGGGLVQAGGSLRLSCAASGSILRYYAMGWFRQAPGKERELVAAISYSGGSTYYADSVKGRFTISRDNAKNTVYLQMNSLKPEDTAVYYCNKLYDRGYDYWGQGTQVTVSS” here?
Its value is “high polyreactivity”.

For “QVQLVESGGGLVQAGGSLRLSCAASGSILSFNAMGWYRQAPGKERELVAAICRGGSTYYADSVKGRFTISRDNAKNTVYLQMNSLKPEDTAVYYCAVQLRRHVDMDYWGQGTQVTVSS”, which “polyreactivity (PSR sort gate)” value is on record?
The value was “high polyreactivity”.

For “QVQLVESGGGLVQAGGSLRLSCAASGSILSYYAMGWYRQAPGKERELVAAISKSGGRTYYADSVKGRFTISRDNAKNTVYLQMNRLKPEDTAVYYCAAPATYKYDYWGQGTQVTVSS”, which “polyreactivity (PSR sort gate)” value is on record?
Its value is “high polyreactivity”.

With “QVQLVESGGGLVQAGGSLRLSCAASGSILTPYAMGWYRQAPGKERELVAAISWGDGSTYYADSVKGRFTISRDNAKNTVYLQMNSLNPEDNAVYYCAAVSYYGVDQYRITVYTYEYWGQGTQVTVSS” as the sequence, how does the “polyreactivity (PSR sort gate)” value read?
The value was “low polyreactivity”.

For “QVQLVESGGGLVQAGGSLRLSCAASGSILVQSAMGWERQAPGKERELVAAISRGGSTNYADSVKGRFTISRDNPKNTVYLQMNSLKPEDTAVYYCAARRPWGEYYWGQGTQVNVSS”, which “polyreactivity (PSR sort gate)” value is on record?
Its value is “low polyreactivity”.

With “QVQLVESGGGLVQAGGSLRLSCAASGSILVRYSMGWYRQAPGKERELVAAITSGGSTYADSVKGRFTISRDNAKNTVYLQLNSLNPEDTAVYYCARDYFNREAFDYWGQGTQVTVSS” as the sequence, how does the “polyreactivity (PSR sort gate)” value read?
Its value is “low polyreactivity”.

With “QVQLVESGGGLVQAGGSLRLSCAASGSILVSYAMGWYRQAPGKERELVAAITRSGVRTYYADSVKGRFTISRDNAKNSVYLQMNSLKPEDTAVYYCAADTYRSSSPYGYWGQGTQVTVSS” as the sequence, how does the “polyreactivity (PSR sort gate)” value read?
The value was “high polyreactivity”.

For “QVQLVESGGGLVQAGGSLRLSCAASGSILWDNAMGWYRQAPGKERELVATISVSGGGTYYADSVKGRFTISLDNAKNTVYLQMNSLKPEDTSVYYCNARYGNESQGWEDYWGQGTQVTVSS”, which “polyreactivity (PSR sort gate)” value is on record?
The value was “low polyreactivity”.

For “QVQLVESGGGLVQAGGSLRLSCAASGSILYFNAMGWYRQAPGKEREFVATIRRSGGSTNYADSVKGRFTISRDNAKNTVYLQMNSVKREDTAVYYCNARLSSGYTSWRYNYWGQGTQVSVSS”, which “polyreactivity (PSR sort gate)” value is on record?
The value was “high polyreactivity”.

For “QVQLVESGGGLVQAGGSLRLSCAASGSILYGYAMGWYRQAPGKERELYASITSDGSSNYADSVKGRFTISRDNAKNTVYFQMNSLKPEDTAVYYCAADVRLIWSASLTTSKYDYWGQGTQVTVSS”, which “polyreactivity (PSR sort gate)” value is on record?
Its value is “low polyreactivity”.

Which “polyreactivity (PSR sort gate)” value does the source give for “QVQLVESGGGLVQAGGSLRLSCAASGSILYINTMGWYRQAPGKERELVAAITYSGGSTYYADSVKGRLTISRDNAKNTVYLQMNRLKPEDTAVYYCAADGYYGGYNYWGQGTQVTVSS” here?
Its value is “low polyreactivity”.

With “QVQLVESGGGLVQAGGSLRLSCAASGSILYPTAMGWYTQAPGKEREFVAGITSSGSTYYADSVKGRFTISRDNAKNTVDDQMNSLKPDDTAVYYCATSVYRTYGNSVHRMNYWGQGTQVTVSS” as the sequence, how does the “polyreactivity (PSR sort gate)” value read?
Its value is “high polyreactivity”.

For “QVQLVESGGGLVQAGGSLRLSCAASGSILYPYAMGWYRQAPGKEREFVAAITYGGGRTYYADSVKGRFTISRDNEKNTVYLHMNSLKPEDTAVYYCAARYTYSYPLFGSWGQGTQVTVSS”, which “polyreactivity (PSR sort gate)” value is on record?
The value was “high polyreactivity”.

With “QVQLVESGGGLVQAGGSLRLSCAASGSILYRNAMGWYRQAPGKERELVAGITRRGGSTYYADSVKGRFTISRDNAKNTVYLQMISLKPEDTAVYYCNVQRARRQRQYGYWGQGTQVTVSS” as the sequence, how does the “polyreactivity (PSR sort gate)” value read?
The value was “low polyreactivity”.

With “QVQLVESGGGLVQAGGSLRLSCAASGSILYTYAMGWYRQAPGKERELVAAISRSGGSTYYADSVKGRFTISRDTAKNTVYLQMNSLKPEDTAVYYCNAVRYLTRLGRYDYWGQGTQVTVSS” as the sequence, how does the “polyreactivity (PSR sort gate)” value read?
The value was “high polyreactivity”.

Which “polyreactivity (PSR sort gate)” value does the source give for “QVQLVESGGGLVQAGGSLRLSCAASGSILYVNAMGWYRQAPGKERELVAVITSGGSTNNADSVKGRFTISRDNAKNTVYLQMNSLKPEDTAVYYCAADPYSVYGGDYWGQGTQVTVSS” here?
Its value is “low polyreactivity”.

With “QVQLVESGGGLVQAGGSLRLSCAASGSILYYYAMGWYRQAPGKERELVAAISWSGASTYYADSVKGRFTISRDNAKNTVYLQMNSLIPEDTAVYYCNADYTRDRYVANRYYYWGQGTQVTVSS” as the sequence, how does the “polyreactivity (PSR sort gate)” value read?
Its value is “high polyreactivity”.

For “QVQLVESGGGLVQAGGSLRLSCAASGSILYYYAMGWYRQAPGKERELVAAISWSGASTYYADSVKGRFTISRDNAKNTVYLQMNSLKPEDTAVYDCATSYTKQGFRYYYWGQGTQVTVSS”, which “polyreactivity (PSR sort gate)” value is on record?
Its value is “high polyreactivity”.

With “QVQLVESGGGLVQAGGSLRLSCAASGSILYYYTMGWYRQAPGQDRELVAAITSSGGSTYYADSVKGRFTISRDNATKTVYLQMNSLKPEDTAVDYCNVDSGRSYRVARYDYWGQGTQVTVSS” as the sequence, how does the “polyreactivity (PSR sort gate)” value read?
Its value is “low polyreactivity”.

Which “polyreactivity (PSR sort gate)” value does the source give for “QVQLVESGGGLVQAGGSLRLSCAASGSIMGWSRQAPGTERELVAAISRGGSTYYADSVKGRFTISRDNAKNTVYLQMNSLKPEDTAVYYCAAKTGGSRSRFEYWGQGTQVTVSS” here?
Its value is “high polyreactivity”.

Which “polyreactivity (PSR sort gate)” value does the source give for “QVQLVESGGGLVQAGGSLRLSCAASGSISATYAKGWYRQAPGKERELVAAISRNGGSTYYADSVKGRFTISRDNAKNTVYLQMNSLKPEDTAVYYCATSSSKSMYWGQGTQVTVSS” here?
The value was “high polyreactivity”.
